T1: Rab31 (Homo sapiens, UniProt Q13636)
T1 sequence (Q13636 1-195): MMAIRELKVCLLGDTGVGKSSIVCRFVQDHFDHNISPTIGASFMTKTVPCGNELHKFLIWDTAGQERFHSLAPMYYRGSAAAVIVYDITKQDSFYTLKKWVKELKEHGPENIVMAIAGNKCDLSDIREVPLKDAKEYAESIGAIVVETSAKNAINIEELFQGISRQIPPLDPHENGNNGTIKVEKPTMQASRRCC

T2: p75^NTR ICD (Homo sapiens, UniProt P08138)
T2 construct: peptide array data of Rab31 peptides with p75^NTR intracellular domain (ICD)
T2 sequence (P08138 273-427 limits assumed): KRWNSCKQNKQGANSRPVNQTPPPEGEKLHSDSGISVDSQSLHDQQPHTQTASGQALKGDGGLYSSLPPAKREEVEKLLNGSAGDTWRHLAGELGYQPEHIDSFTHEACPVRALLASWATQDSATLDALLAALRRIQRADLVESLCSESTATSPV

B1: BDNF: p75^NTR neurotrophin ligand, brain-derived neurotrophic factor (Peprotech) (protein, UniProt P23560 19-247, looked up)
Neurotrophic factor BDNF …: APMKEANIRGQGGLAYPGVRTHGTLESVNGPKAGSRGLTSLADTFEHVIEELLDEDQKVRPNEENNKDADLYTSRVMLSSQVPLEPPLLFLLEEYKNYLDAANMSMRVRRHSDPARRGELSVCDSISEWVTAADKKTAVDMSGGTVTVLEKVPVSKGQLKQYFYETKCNPMGYTKEGCRGIDKRHWNSQCRTTQSYVRALTMDSKKRIGWRFIRIDTSCVCTLTIKRGR

Legend:
3T3L1 adipocytes = experiment: Glucose uptake assay in 3T3L1 adipocytes; type: cell-based, mouse; details: for glucose uptake: addition of neurotrophin ligand, 100 ng/ml NGF or 50 ng/ml BDNF; for basal and insulin-stimulated glucose uptake: neurotrophin treatment for 1 h before insulin stimulation
Protocol: 3T3L1 cells were maintained in DMEM containing 10% bovine serum. All media were supplemented with 1% penicillin/streptomycin (Invitrogen). Mouse embryonic fibroblasts (MEFs) were isolated from wild-type (WT) and p75^NTR−/− embryos as described (5). Briefly, heads and internal organs were removed from E12-14 embryos, and the remaining embryo was minced with scissors. Ten ml of ice cold phosphate-buffered saline (PBS) was added and minced embryos were centrifuged for 5 minutes at 500×g. Each embryo was resuspended in 7.5 ml Trypsin-EDTA for 20 minutes at 37° C. with occasional shaking. After trypsin deactivation by 7.5 ml DMEM with 10% FBS the suspension was poured through a 70 μm filter and cells were cultured in DMEM with 10% fetal bovine serum (FBS). Differentiation of 3T3L1 cells and MEFs was performed as described (6). Briefly, differentiation was induced by incubating confluent monolayers for 3 days in DMEM containing 10% fetal bovine serum (FBS), 0.5 mM 3-isobutyl-1-methylxanthine, 0.4 μg/ml dexamethasone, and 1 μg/ml of insulin. Medium was replaced every 2 days with DMEM containing 10% FBS. After 8-12 days, 75% of the cells expressed the adipocyte phenotype as assessed by Oil Red O. Isolation of primary adipocytes from epididymal fat pads was performed as described (7). Briefly, fat pads were minced in Krebs-Ringer Bicarbonate-Hepes (KRBH) buffer, pH 7.4, treated with collagenase (Invitrogen) for 40 min, filtered through a nylon strainer and centrifuged at 400×g for 1 minute. Fully-differentiated adipocytes were transfected by electroporation using Amaxa Cell Line Nucleofector kit L (Lonza) following manufacturer's instructions. For p75^NTR knockdown experiments, 3T3L1 cells were differentiated for 6-8 days and infected with lentivirus encoding a short hairpin shRNA for mouse p75^NTR (8) and L6 myocytes were transfected with siGENOME SMART pool for rat p75^NTR (Thermo Scientific).
Fully differentiated 3T3L1 adipocytes and eight day differentiated WT and p75^NTR−/− MEFs were serum-starved for 3 hrs in DMEM and then equilibrated in Hepes/Salt (H/S) buffer for 30 min prior to treatment with 100 nM insulin for 30 min at 37° C. Thirty min after the addition of insulin, [^3H]-2-deoxyglucose (Amersham) and 2 mM 2-deoxyglucose (Sigma) in H/S buffer was added. After incubation at 37° C. for 10 min, the reactions were terminated by washing twice with ice-cold PBS. Cells were lysed in 1 M NaOH for 30 min at room temperature. An equal volume of 1 M HCl was added and incorporated radioactivity was measured by liquid scintillation counting. […] The fat cells were isolated and the level of radioactivity was counted. […]

Rab5 = experiment: Peptide array mapping of p75ICD peptides with GST-Rab5; type: binding; details: peptide array of overlapping p75ICD peptides, 1 μg/ml GST-Rab5
Protocol: (§1) Peptide arrays were manufactured by Kinexus Bioinformatics Corporation (Vancouver, Canada). Synthetic overlapping peptides (25 amino acids in length) for p75ICD were spotted on nitrocellulose membranes. Membranes were overlaid with 1 μg/ml recombinant GST-Rab31, GST-Rab5 and p75^NTR ICD. Bound recombinant GST-Rab31 and GST-Rab5 were detected using rabbit anti-GST (1:1000, Cell Signaling) and bound recombinant p75ICD was detected using rabbit anti-p75^NTR (1:1000, Millipore) followed by secondary anti-rabbit horseradish peroxidase antibody (1:5000, Cell Signaling).

Rab31 = biological target: T1, Rab31; experiment: Peptide array mapping of p75ICD peptides with GST-Rab31; type: binding; details: peptide array of overlapping p75ICD peptides, 1 μg/ml GST-Rab31
Protocol: as §1

p75^NTR ICD = biological target: T2, p75^NTR ICD; experiment: Peptide array of Rab31 peptides with GST-p75^NTR ICD; type: binding; details: peptide array of overlapping Rab31 peptides, 1 μg/ml GST-p75^NTR ICD
Protocol: Peptide arrays were manufactured by Kinexus Bioinformatics Corporation (Vancouver, Canada). Synthetic overlapping peptides (25 amino acids in length) for Rab31 were spotted on nitrocellulose membranes. Membranes were overlaid with 1 μg/ml recombinant GST-p75^NTR ICD. Bound recombinant GST-p75ICD were detected using rabbit anti-p75^NTR (1:1000, Millipore) followed by secondary anti-rabbit horseradish peroxidase antibody (1:5000, Cell Signaling).

| Molecule | glucose uptake (3T3L1 adipocytes) | basal and insulin-stimulated glucose uptake (3T3L1 adipocytes) | interaction with Rab5-GST (Rab5) | interaction with Rab31-GST (Rab31) | binding to p75^NTR ICD (p75^NTR ICD) |
| --- | --- | --- | --- | --- | --- |
| NGF: p75^NTR neurotrophin ligand, nerve growth factor (Peprotech) | did not affect | No statistically significant differences |  |  |  |
| LLASWATQDSATLDA [peptide 7, p75^NTR ICD death-domain peptide, aa 386-400, helix 4 and region between helixes 4 and 5] |  |  | strongest interactions | strongest interactions |  |
| EHGPENIVMAIAGNK [Peptide 6] |  |  |  |  | binds |
| B1 | did not affect | No statistically significant differences |  |  |  |

Reference: patent US10247735B2, “Compositions and methods for regulating glucose metabolism” (The J. David Gladstone Institutes, priority 2011, dated 2019)
